# Test results reported in patent publication US20250224393A1.
# Target: Recombinantly expressed GPIb protein fragment of a gain-of-function mutant of the human GPIb protein (human) (UniProt P07359)
# Assay: latex agglutination VWF activity assay; HBR total protein up to 0.02 mg/mL in solution, comparison control
# Chain of UniProt P07359 (P07359 other isoform, or with tags, fused parts or gaps mutant): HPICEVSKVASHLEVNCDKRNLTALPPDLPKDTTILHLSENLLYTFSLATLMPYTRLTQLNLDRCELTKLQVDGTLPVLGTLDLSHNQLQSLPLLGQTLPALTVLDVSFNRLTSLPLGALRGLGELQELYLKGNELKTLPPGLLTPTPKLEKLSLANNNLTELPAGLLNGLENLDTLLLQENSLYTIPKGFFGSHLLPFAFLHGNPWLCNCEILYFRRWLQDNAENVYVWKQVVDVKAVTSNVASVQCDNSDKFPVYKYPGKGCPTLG
substance,measurement,value
"HBR-1 reagent (Heterophilic Blocking Reagent 1, Scantibodies Laboratory, Inc.) containing a mixture of mouse immunoglobulins",reduction of the VWF activity measured,< 2.6%
